Data set [1] concerns the target T1, MBNL1 (Mus musculus, UniProt G3X9Q0 1-381).
T1 sequence: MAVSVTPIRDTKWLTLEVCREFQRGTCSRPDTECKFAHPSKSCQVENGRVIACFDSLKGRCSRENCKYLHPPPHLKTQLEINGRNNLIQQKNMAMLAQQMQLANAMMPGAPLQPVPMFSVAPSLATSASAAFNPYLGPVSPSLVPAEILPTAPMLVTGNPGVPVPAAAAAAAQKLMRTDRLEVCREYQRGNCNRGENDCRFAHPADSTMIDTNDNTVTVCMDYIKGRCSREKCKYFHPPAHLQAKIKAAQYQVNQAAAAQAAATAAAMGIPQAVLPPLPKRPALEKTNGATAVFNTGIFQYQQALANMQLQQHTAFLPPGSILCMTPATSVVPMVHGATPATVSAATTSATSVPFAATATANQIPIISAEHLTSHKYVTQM
In words: EMSA; 1 mM Mg2+; EMSA: 40 mM Tris-Cl pH 8.0, 30 mM KCl, 1 mM MgCl2, 0.01% NP-40, 1 mM DTT, 5% glycerol, 10 ug/ml BSA, 30 min room temperature; pull-down: nuclear extract in 50 mM Tris pH 7.4, 150 mM NaCl, 1 mM EDTA, 0.5% NP-40, 4 h at 4 C. As to conditions: protein: recombinant; tags: N-terminal 3xFLAG-2xSTREP; label: 5' 32P (probe). For orientation: A gel shift assay detects complexes by their altered migration in electrophoresis.

Data set [2] concerns the target T2, Zfp106 (Mus musculus, UniProt O88466 1-1888). In words: EMSA; 1 mM Mg2+; competed by 30x unlabeled self; EMSA: 40 mM Tris-Cl pH 8.0, 30 mM KCl, 1 mM MgCl2, 0.01% NP-40, 1 mM DTT, 5% glycerol, 10 ug/ml BSA, 30 min room temperature; pull-down: nuclear extract in 50 mM Tris pH 7.4, 150 mM NaCl, 1 mM EDTA, 0.5% NP-40, 4 h at 4 C. As to conditions: protein: recombinant; tags: N-terminal 3xFLAG-2xSTREP; label: 5' 32P (probe).

Data set [3] deals with T2, Zfp106. In words: competition; 30x molar excess vs r(GGGGCC)4 probe; EMSA: 40 mM Tris-Cl pH 8.0, 30 mM KCl, 1 mM MgCl2, 0.01% NP-40, 1 mM DTT, 5% glycerol, 10 ug/ml BSA, 30 min room temperature; pull-down: nuclear extract in 50 mM Tris pH 7.4, 150 mM NaCl, 1 mM EDTA, 0.5% NP-40, 4 h at 4 C. As to conditions: protein: recombinant, tags: N-terminal 3xFLAG-2xSTREP.
Data set [4] deals with T1, MBNL1. In words: EMSA; 1 mM Mg2+; competed by 30x unlabeled self; EMSA: 40 mM Tris-Cl pH 8.0, 30 mM KCl, 1 mM MgCl2, 0.01% NP-40, 1 mM DTT, 5% glycerol, 10 ug/ml BSA, 30 min room temperature; pull-down: nuclear extract in 50 mM Tris pH 7.4, 150 mM NaCl, 1 mM EDTA, 0.5% NP-40, 4 h at 4 C. Particulars: protein: recombinant; tags: N-terminal 3xFLAG-2xSTREP; label: 5' 32P (probe).

T2 sequence (O88466 whole entry): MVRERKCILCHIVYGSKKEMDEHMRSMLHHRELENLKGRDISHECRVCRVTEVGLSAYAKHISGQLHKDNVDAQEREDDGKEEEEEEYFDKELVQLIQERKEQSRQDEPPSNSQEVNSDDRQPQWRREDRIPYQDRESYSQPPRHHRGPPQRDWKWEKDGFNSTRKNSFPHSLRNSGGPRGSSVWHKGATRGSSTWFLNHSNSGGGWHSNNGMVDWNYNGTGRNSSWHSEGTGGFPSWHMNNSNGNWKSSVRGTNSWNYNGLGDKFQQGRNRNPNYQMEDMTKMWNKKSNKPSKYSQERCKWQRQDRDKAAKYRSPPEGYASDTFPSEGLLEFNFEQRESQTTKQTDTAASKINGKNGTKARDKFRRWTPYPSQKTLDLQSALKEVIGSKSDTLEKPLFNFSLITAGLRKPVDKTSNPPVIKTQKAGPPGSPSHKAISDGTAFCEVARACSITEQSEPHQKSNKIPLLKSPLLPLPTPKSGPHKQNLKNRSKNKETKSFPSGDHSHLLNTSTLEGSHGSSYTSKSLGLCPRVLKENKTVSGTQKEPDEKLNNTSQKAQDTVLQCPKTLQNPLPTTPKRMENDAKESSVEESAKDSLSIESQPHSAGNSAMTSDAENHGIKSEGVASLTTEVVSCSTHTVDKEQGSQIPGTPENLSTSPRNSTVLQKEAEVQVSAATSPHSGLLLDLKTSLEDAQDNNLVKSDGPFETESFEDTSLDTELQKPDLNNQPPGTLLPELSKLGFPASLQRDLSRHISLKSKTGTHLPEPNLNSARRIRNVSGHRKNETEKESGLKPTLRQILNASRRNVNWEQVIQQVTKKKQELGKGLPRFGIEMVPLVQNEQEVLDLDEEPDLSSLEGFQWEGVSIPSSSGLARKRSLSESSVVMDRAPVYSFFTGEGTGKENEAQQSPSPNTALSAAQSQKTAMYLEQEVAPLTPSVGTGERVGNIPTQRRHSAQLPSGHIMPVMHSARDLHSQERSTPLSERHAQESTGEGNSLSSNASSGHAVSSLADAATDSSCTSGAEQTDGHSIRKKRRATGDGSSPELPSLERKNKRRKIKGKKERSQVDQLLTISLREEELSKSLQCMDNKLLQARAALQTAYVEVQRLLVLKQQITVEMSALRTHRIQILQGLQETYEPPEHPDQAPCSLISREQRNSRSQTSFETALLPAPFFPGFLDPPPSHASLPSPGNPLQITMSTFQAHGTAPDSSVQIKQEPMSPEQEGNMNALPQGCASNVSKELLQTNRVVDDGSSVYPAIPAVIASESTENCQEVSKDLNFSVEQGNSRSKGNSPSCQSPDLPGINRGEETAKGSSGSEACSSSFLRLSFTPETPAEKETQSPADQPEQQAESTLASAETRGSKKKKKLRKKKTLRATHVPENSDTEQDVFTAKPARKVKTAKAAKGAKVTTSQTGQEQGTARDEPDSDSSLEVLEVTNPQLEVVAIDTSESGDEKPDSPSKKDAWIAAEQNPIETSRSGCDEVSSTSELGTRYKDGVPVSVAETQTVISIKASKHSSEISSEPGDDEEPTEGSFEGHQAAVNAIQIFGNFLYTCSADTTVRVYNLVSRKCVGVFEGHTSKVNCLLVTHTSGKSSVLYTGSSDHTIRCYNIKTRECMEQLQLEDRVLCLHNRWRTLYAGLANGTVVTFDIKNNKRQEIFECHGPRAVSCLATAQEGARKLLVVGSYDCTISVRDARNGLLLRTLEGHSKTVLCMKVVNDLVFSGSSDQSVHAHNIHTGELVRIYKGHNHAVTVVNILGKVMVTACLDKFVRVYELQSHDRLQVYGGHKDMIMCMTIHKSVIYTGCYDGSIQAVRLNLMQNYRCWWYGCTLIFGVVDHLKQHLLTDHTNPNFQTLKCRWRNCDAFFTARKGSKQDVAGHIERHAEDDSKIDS

Take GGGGCCGGGGCCGGGGCCGGGGCC (ssRNA) [r(GGGGCC)4]: the binding result with MBNL1 [1] is given as “no binding”; with Zfp106 [2], “binds”.
For the molecule AAAACCAAAACCAAAACCAAAACC (ssRNA) [r(AAAACC)4], the binding result in the data set with Zfp106 [3] is recorded as “no binding”.
Turning to CUGCUGCUGCUGCUGCUGCUGCUG (ssRNA) [r(CUG)8], the binding result was “binds” with MBNL1 [4] and “no binding” with Zfp106 [3] (label: 5' 32P (probe)).
As to GAGGCCGGGACCGAGACCGAGGCC (ssRNA) [mutated r(GGGGCC)4 (mut)], in the data set with Zfp106 [3], the binding result is “no binding”.

Source of the values: PMC5283830, “Suppression of C9orf72 RNA repeat-induced neurotoxicity by the ALS-associated RNA-binding protein Zfp106”.
